Usually Kd stands for the equilibrium constant for the complex coming apart. Read a high Kd as weaker binding.

For test [1], the target named is T1, EDIII-DV4 (E protein domain III of dengue virus serotype DV-4) (dengue virus serotype DV-4, UniProt P09866 572-679).
T1 construct: also called DENV-4

For test [2], the target named is T2, EDIII-DV3 (E protein domain III of dengue virus serotype DV-3) (dengue virus serotype DV-3, UniProt P27915 571-678).
T2 construct: also called DENV-3; EDIII of DV-3

Test [3] addresses T3, EDIII-DV1 (E protein domain III of dengue virus serotype DV-1) (dengue virus serotype DV-1, UniProt P17763 573-680).
T3 construct: also called DENV-1; EDIII of DV-1
T3 chain: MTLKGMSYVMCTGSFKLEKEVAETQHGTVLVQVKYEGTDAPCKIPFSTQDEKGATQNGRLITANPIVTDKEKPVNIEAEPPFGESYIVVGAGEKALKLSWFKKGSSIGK

In test [4] the target is T1, EDIII-DV4 (E protein domain III of …). The source holds these as a separate data set.
In test [5] the target is T2, EDIII-DV3 (E protein domain III of …). This is another data set of the same source.
For test [6], the target named is T1, EDIII-DV4 (E protein domain III of …). The source holds these as a separate data set.

Where a chain is given by its changes, count along the chain named. Names and notes keep the numbering of the source. Where two headings read alike, the source gives them in different places.

T2 sequence (P27915 571-678, tags left off): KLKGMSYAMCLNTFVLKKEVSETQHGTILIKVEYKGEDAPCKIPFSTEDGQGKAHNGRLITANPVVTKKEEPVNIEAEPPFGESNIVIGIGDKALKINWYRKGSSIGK
T1 sequence (P09866 572-679, tags left off): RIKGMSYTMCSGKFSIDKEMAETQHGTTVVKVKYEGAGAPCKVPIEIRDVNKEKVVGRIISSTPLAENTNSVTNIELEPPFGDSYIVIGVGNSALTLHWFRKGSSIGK

B1: B48+V2L (antibody, V domains shown)
VH: QLQLVQSGAEVKKPGASVKVSCKAGFNIKDTYMSWVRQAPEQGLEWMGRIDPENGDTKYDPKLQGRVTMTADTSTNTAYMELRSLRSDDTAVYYCARGWEGFAYWGQGTLVTVSS
VL: DIVMTQSPASLAVSLGERATISCRASENVDKYGNSFMHWYQQKPGQPPKLLIYRASELQWGVPDRFSGSGSGTDFTLTISSLQAEDVAVYYCQRSNEVPWTFGQGTKLEIK
B1 gave a dissociation constant (Kd) in test [1] of 23.6 nM.

B2: antibody A48 (antibody, V domains shown)
VH: QVQLVQSGAEVKKPGASVKVSCKASGFNIKDTYMSWVRQAPEQGLEWMGRIDPENGDTKYDPKLQGRVTMTADTSTNTAYMELRSLRSDDTAVYYCARGWEGFAYWGQGTLVTVSS
VL: B1 VL
Turning to B2, the dissociation constant Kd in test [2] was 5.8 nM; in test [3] it was < 0.1 nM.

B3: B48+InsE6 (antibody, V domains shown)
VH: B1 VH with Q1V, L2Q, Q3L, L4V, V5E
VL: B1 VL
B3 displayed a dissociation constant (Kd) in test [1] of 26.9 nM.

B4: antibody D148 (antibody, V domains shown)
VH: B2 VH with G26Y, T32V
VL: B1 VL
B4 returned a Kd in test [4] of 18 nM.

B5: A48+V2L (antibody, V domains shown)
VH: B2 VH with V2L, T32V
VL: B1 VL
B5 returned a Kd in test [1] of 21.3 nM.

B6: antibody D128 (antibody, V domains shown)
VH: B2 VH with G26A, F27W, T32V
VL: B1 VL
In turn, B6 registered a Kd in test [4] of 20.8 nM.

B7: antibody D108 (antibody, V domains shown)
VH: B2 VH with G26Y, F27W, T32V
VL: B1 VL
The molecule B7 registered a dissociation constant (Kd) in test [4] of 18.3 nM.

B8: D178 (antibody, V domains shown)
VH: B1 VH with L2V, T31V, A96V
VL: B1 VL
Take B8: the equilibrium dissociation constant (Kd) is 1.05 nM in test [5] and 4.67 nM in test [6].

B9: C128 (antibody, V domains shown)
VH: B2 VH with T32V, A97S
VL: B1 VL
Turning to B9, the results for the equilibrium dissociation constant (Kd) in test [5] and in test [6] were 0.63 nM and 18.7 nM, respectively.

B10: D168 (antibody, V domains shown)
VH: B2 VH with F27Y, T32V
VL: B1 VL
Molecule B10 returned a Kd in test [4] of 324 nM.

B11: A48+InsE6 (antibody, V domains shown)
VH: B2 VH with Q1V, V2Q, Q3L, L4V, V5E, T32V
VL: B1 VL
For B11, the Kd in test [1] was determined as 19.5 nM.

B12: C41 (antibody, V domains shown)
VH: VKLLEQSGAELVKPGASVRLSCTASGFNIKDVYMSWVKQRPEQGLEWIGRIDPENGDTKYDPKFQGKATITADTSSNTAYLHLSSLTSGDTAVYYCSRGWEGFAYWGQGTLVTVSA
VL: ELVMTQTPASLAVSLGQRATISCRASENVDKYGNSFMHWYQQKAGQPPKLLIYRASELQWGIPARFSGSGSRTDFTLTINPVEADDVATYFCQRSNEVPWTFGGGTKLEIK
Regarding B12, in test [1], the equilibrium dissociation constant (Kd) worked out at 2.56 nM.

The record behind these values is patent US20240425569A1 (VISTERRA, published 2024).
